This assay concerns the target integrin alpha(IIb)beta(3) (UniProt P08514). The assay is described as follows: cell-based or functional assay.

B1: trimucrin variant RR (protein)
chain: EAGEECDCGSPENPCCDAATCKLRPGAQCAEGLCCDQCRFKKKRTICRRAKGDRRDDRCTGQSADCPRNRLYG
Take B1: the IC50: platelet aggregation amounted to 52.5 nM and the Ratio (RR/corresponding protein) of IC50 for platelet aggregation (ratio (RR/corresponding protein)) stood at 1.
